Bridge positions count the residues as written; N and C are the ends. Square brackets hold non-standard residues; d marks the D form. Ends that are not written are not given here. 2Nal = N[C@@H](Cc1ccc2ccccc2c1)C(=O)O; Cha = N[C@@H](CC1CCCCC1)C(=O)O; Pen = CC(C)(S)[C@H](N)C(=O)O; Nle = CCCC[C@H](N)C(=O)O; Ahx = NCCCCCC(=O)O; Ava = NCCCCC(=O)O; GABA = NCCCC(=O)O

The target in experiment [1] is T1, hMC1-R (human, UniProt Q01726 1-317).
T1 construct: whole, on cells; Assayed as membranes of CHO-K1 cells expressing the receptor; also called hMC-R receptor subtype 1; melanocyte-specific receptor (MC1-R)
T1 sequence (Q01726 whole entry): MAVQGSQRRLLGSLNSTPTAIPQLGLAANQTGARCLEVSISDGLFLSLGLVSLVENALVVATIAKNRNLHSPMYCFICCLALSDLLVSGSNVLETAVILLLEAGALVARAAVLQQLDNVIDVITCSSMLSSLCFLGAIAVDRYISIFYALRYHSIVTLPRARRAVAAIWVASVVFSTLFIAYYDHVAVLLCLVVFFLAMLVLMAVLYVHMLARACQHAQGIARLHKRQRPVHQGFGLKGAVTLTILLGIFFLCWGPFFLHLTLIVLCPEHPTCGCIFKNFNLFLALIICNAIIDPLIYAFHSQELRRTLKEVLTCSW
The experiment in a line: ratio Ki hMC1-R / Ki hMC4-R, same assay. How it is done:
Cellular membranes used for the in vitro receptor binding assays were obtained from transgenic CHO-K1 cells stably expressing hMC-R receptor subtypes 1, 3, 4 or 5. […] The pellets were resuspended in the same buffer and centrifuged at 50,000 g for 10 minutes at approximately 4° C. The washed pellets containing the cellular membranes were stored at approximately −80° C.
Competitive inhibition of [¹²⁵I](Tyr²)-(Nle⁴-D-Phe⁷)α-MSH ([¹²⁵I]-NDP-α-MSH, Amersham Biosciences®) binding was carried out in polypropylene 96 well plates. Cell membranes (1-10 μg protein/well) prepared as described above were incubated in 50 mM Tris-HCl at pH 7.4 containing 0.2% bovine serum albumin (BSA), 5 mM MgCl₂, 1 mM CaCl₂ and 0.1 mg/mL bacitracin, with increasing concentrations of the test compound and 0.1-0.3 nM […] for approximately 90-120 minutes at approximately 37° C. Bound [¹²⁵I]-NDP-α-MSH ligand was separated from free [¹²⁵I]-NDP-α-MSH by filtration through GF/C glass fiber filter plates (Unifilter®; Packard) presoaked with 0.1% (w/v) polyethylenimine (PEI), using a Packard Filtermate® harvester. Filters were washed three times with 50 mM Tris-HCl at pH 7.4 at a temperature of approximately 0-4° C. and then assayed for radioactivity using a Packard Topcount® scintillation counter. Binding data were analyzed by computer-assisted non-linear regression analysis (XL fit; IDBS).

Experiment [2] concerns the target T1, hMC1-R. The experiment in a line: competition with [125I]-NDP-α-MSH, CHO-K1 membranes.
Another experiment deals with T2, hMC3-R (human, UniProt P41968 1-323).
T2 construct: whole, on cells; Assayed as membranes of CHO-K1 cells expressing the receptor; also called hMC-R receptor subtype 3; melacortin-3 (MC3-R)
T2 sequence (P41968 whole entry): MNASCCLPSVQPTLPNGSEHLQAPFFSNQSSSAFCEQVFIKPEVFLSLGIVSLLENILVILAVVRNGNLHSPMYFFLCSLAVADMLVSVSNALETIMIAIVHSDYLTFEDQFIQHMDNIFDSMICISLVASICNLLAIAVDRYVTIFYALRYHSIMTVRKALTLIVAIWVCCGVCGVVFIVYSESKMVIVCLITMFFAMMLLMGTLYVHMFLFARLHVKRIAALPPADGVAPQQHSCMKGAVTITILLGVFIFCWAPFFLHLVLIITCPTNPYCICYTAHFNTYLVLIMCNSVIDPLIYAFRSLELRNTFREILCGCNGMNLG
Described as above.

The next experiment deals with T3, hMC4-R (human, UniProt P32245 1-332).
T3 construct: whole, on cells; Assayed as membranes of CHO-K1 cells expressing the receptor; also called hMC-R receptor subtype 4; melanocortin-4 (MC4-R)
T3 sequence (P32245 whole entry): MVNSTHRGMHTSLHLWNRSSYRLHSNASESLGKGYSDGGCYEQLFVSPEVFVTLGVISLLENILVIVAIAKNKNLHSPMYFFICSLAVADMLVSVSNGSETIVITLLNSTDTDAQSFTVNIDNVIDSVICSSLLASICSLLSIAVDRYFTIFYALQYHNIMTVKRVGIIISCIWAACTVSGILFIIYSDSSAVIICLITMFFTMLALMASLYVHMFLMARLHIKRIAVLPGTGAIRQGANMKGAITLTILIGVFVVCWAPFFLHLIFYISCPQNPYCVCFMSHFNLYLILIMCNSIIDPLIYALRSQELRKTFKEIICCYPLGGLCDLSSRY
The description is as above.

The next experiment addresses T4, hMC5-R (human, UniProt P33032 1-325).
T4 construct: whole, on cells; Assayed as membranes of CHO-K1 cells expressing the receptor; also called hMC-R receptor subtype 5; melanocortin-5 receptor (MC5-R)
Described as above.

T4 sequence (P33032 whole entry): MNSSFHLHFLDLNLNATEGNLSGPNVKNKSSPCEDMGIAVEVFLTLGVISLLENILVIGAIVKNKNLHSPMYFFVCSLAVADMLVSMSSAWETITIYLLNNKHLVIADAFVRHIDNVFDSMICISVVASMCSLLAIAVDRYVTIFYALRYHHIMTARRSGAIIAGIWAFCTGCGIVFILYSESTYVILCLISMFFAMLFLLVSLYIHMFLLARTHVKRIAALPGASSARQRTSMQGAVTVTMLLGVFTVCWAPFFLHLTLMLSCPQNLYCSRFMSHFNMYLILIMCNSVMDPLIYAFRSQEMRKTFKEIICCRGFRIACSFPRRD

Take Ac-[Nle]CH[dF]RW[Ahx]C-NH2 (disulfide 2-8) [Ac-Nle-c(Cys-His-D-Phe-Arg-Trp-Ahx-Cys)-NH2]: the “Ki hMC1-R/MC4-R” value with hMC1-R [1] was found to be 0.11. Further, the Ki (as a rule, the equilibrium dissociation constant of an inhibitor or competing ligand from its target) is 0.0132 nM with hMC1-R [2], 16.1 nM with hMC3-R, 1.23 nM in the experiment with hMC4-R and 0.359 nM with hMC5-R.

Turning to Ac-[Cha]CH[dF]RW[GABA]C-NH2 (disulfide 2-8) [Ac-Cha-c(Cys-His-D-Phe-Arg-Trp-Gaba-Cys)-NH2], the “Ki hMC1-R/MC4-R” value in the experiment with hMC1-R [1] was found to be 0.12. The Ki with hMC1-R [2] stood at 0.107 nM; in the experiment with hMC3-R, 9.11 nM; with hMC4-R, 0.884 nM; with hMC5-R, 0.354 nM.

B1: Ac-Nle-c(Cys-His-D-Phe-Arg-Trp-Apn-Cys)-NH2 (peptide)
peptide: Ac-[Nle]CH[dF]RW[Ava]C-NH2
modifications: disulfide 2-8
SMILES: CCCC[C@H](NC(C)=O)C(=O)N[C@H]1CSSC[C@@H](C(N)=O)NC(=O)CCCCNC(=O)[C@H](Cc2c[nH]c3ccccc23)NC(=O)[C@H](CCCNC(=N)N)NC(=O)[C@@H](Cc2ccccc2)NC(=O)[C@H](Cc2c[nH]cn2)NC1=O
With B1, the “Ki hMC1-R/MC4-R” value with hMC1-R [1] turned out to be 0.11. Moreover, the inhibition constant (Ki) in the experiment with hMC1-R [2] stood at 0.0951 nM; in the experiment with hMC3-R it was 9.33 nM; in the experiment with hMC4-R, 0.894 nM; in the experiment with hMC5-R, 13.4 nM.

B2: Nle-c(Cys-His-D-Phe-Arg-Trp-Apn-Cys)-NH2 (peptide)
peptide: [Nle]CH[dF]RW[Ava]C-NH2
modifications: disulfide 2-8; N-terminus assumed
SMILES: CCCC[C@H](N)C(=O)N[C@H]1CSSC[C@@H](C(N)=O)NC(=O)CCCCNC(=O)[C@H](Cc2c[nH]c3ccccc23)NC(=O)[C@H](CCCNC(=N)N)NC(=O)[C@@H](Cc2ccccc2)NC(=O)[C@H](Cc2c[nH]cn2)NC1=O
In the case of B2, the “Ki hMC1-R/MC4-R” value in the experiment with hMC1-R [1] turned out to be 0.1. Also, the Ki in the experiment with hMC1-R [2] amounted to 0.07 nM; with hMC3-R, 4.1 nM; in the experiment with hMC4-R, 0.85 nM; with hMC5-R, 8.8 nM.

For [Nle]CH[dF]RW[GABA]C-NH2 (disulfide 2-8) [Nle-c(Cys-His-D-Phe-Arg-Trp-Gaba-Cys)-NH2], the “Ki hMC1-R/MC4-R” value with hMC1-R [1] amounted to 0.1. Besides, the Ki was 0.05 nM in the experiment with hMC1-R [2], 1.3 nM in the experiment with hMC3-R, 0.47 nM in the experiment with hMC4-R and 0.2 nM with hMC5-R.

In the case of Ac-[Nle]CHFR[dW][GABA]C-NH2 (disulfide 2-8, Phe 4 is the L form here) [Ac-Nle-c(Cys-His-Phe-Arg-D-Trp-Gaba-Cys)-NH2], in the experiment with hMC1-R [1], the “Ki hMC1-R/MC4-R” value is 0.04. The Ki in the experiment with hMC1-R [2] was determined as 5.2 nM; with hMC3-R, 150 nM; in the experiment with hMC4-R it was 138 nM; with hMC5-R, 20.3 nM.

On to Ac-[2Nal]CH[dF]RW[GABA]C-NH2 (disulfide 2-8) [Ac-2-Nal-c(Cys-His-D-Phe-Arg-Trp-Gaba-Cys)-NH2], for which, in the experiment with hMC1-R [1], the “Ki hMC1-R/MC4-R” value turned out to be 0.19. Also, the Ki with hMC1-R [2] was 0.56 nM; in the experiment with hMC3-R, 39.2 nM; with hMC4-R it was 2.94 nM; with hMC5-R it was 2.73 nM.

B3: Ac-Ile-c(Cys-His-D-Phe-Arg-Trp-Gaba-Cys)-NH2 (peptide)
peptide: Ac-ICH[dF]RW[GABA]C-NH2
modifications: disulfide 2-8
SMILES: CC[C@H](C)[C@H](NC(C)=O)C(=O)N[C@H]1CSSC[C@@H](C(N)=O)NC(=O)CCCNC(=O)[C@H](Cc2c[nH]c3ccccc23)NC(=O)[C@H](CCCNC(=N)N)NC(=O)[C@@H](Cc2ccccc2)NC(=O)[C@H](Cc2c[nH]cn2)NC1=O
Take B3: the “Ki hMC1-R/MC4-R” value with hMC1-R [1] came to 0.14. Also, the Ki was found to be 0.148 nM with hMC1-R [2], 13.9 nM with hMC3-R, 1.06 nM with hMC4-R and 0.423 nM with hMC5-R.

Turning to Ac-LCH[dF]RW[GABA]C-NH2 (disulfide 2-8) [Ac-Leu-c(Cys-His-D-Phe-Arg-Trp-Gaba-Cys)-NH2], the “Ki hMC1-R/MC4-R” value with hMC1-R [1] came to 0.22. In addition, the Ki with hMC1-R [2] was 0.216 nM; with hMC3-R, 17.4 nM; with hMC4-R, 0.995 nM; in the experiment with hMC5-R, 0.486 nM.

B4: Ac-Val-c(Cys-His-D-Phe-Arg-Trp-Gaba-Cys)-NH2 (peptide)
peptide: Ac-VCH[dF]RW[GABA]C-NH2
modifications: disulfide 2-8
SMILES: CC(=O)N[C@H](C(=O)N[C@H]1CSSC[C@@H](C(N)=O)NC(=O)CCCNC(=O)[C@H](Cc2c[nH]c3ccccc23)NC(=O)[C@H](CCCNC(=N)N)NC(=O)[C@@H](Cc2ccccc2)NC(=O)[C@H](Cc2c[nH]cn2)NC1=O)C(C)C
With B4, in the experiment with hMC1-R [1], the “Ki hMC1-R/MC4-R” value was 0.13. For the same molecule, the Ki was 0.256 nM with hMC1-R [2], 29.9 nM with hMC3-R, 1.98 nM with hMC4-R and 0.864 nM in the experiment with hMC5-R.

For the molecule Ac-[Nle]CH[dF]RW[GABA][Pen]-NH2 (disulfide 2-8) [Ac-Nle-c(Cys-His-D-Phe-Arg-Trp-Gaba-Pen)-NH2], the “Ki hMC1-R/MC4-R” value with hMC1-R [1] is 0.3. Moreover, the Ki with hMC1-R [2] turned out to be 0.12 nM; with hMC3-R it was 10 nM; with hMC4-R, 0.43 nM; with hMC5-R, 0.42 nM.

For Ac-[Nle][Pen]H[dF]RW[GABA][Pen]-NH2 (disulfide 2-8) [Ac-Nle-c(Pen-His-D-Phe-Arg-Trp-Gaba-Pen)-NH2], the “Ki hMC1-R/MC4-R” value in the experiment with hMC1-R [1] came out at 0.21. Moreover, the Ki with hMC1-R [2] is 0.744 nM; with hMC3-R, 178 nM; with hMC4-R, 3.51 nM; with hMC5-R it was 2.69 nM.

The record behind these values is patent US20120135923A1 (IPSEN PHARMA S A S, published 2012).
